This is an account of results in patent US20230374114A1 (Dana-Farber, published 2023).

In this experiment the target is D614G Spike (SARS-CoV-2, UniProt P0DTC2 16-1213).

Numbering of substitutions follows the chain as printed.

B1: Ab 26 (scFv, V domains shown)
VH: QVQLVQSGGGLVQPGRSLRLSCAASGFTFDDYAMHWVRQVPGKGLEWVSGIDWNSGVIGYADSVKGRFTISRDNAKNSLYLQMNSLRAEDTALYYCAKDAYSYGFLGAFDIWGQGTMVTVSS
VL: LPVLTQPPSVSVAPGQTASITCGGDNIRTKGVHWYQQKPGQAPLLVIYYASDRPSGIPERFSGSSSGNTATLTISRVEAGDEADYYCQVWDSSSDLVVFGGGTTLTVL
B1: the Kd was 9.97 pM.

B2: S1-RBD-R3-T1-E2 (Ab7) (scFv, V domains shown)
VH: B1 VH
VL: QPGLTQPPSVSVAPGQTARISCGGNNIGSKSVHWYQQKPGRAPVLVVYEDRGRPSGIPERFSGSNSGNTATLTVSRVEAGDEADYYCQVWDGDSDHYVFATGTKVSIL
The molecule B2 yielded a Kd of 2.74 pM.

B3: Ab_18 (scFv, V domains shown)
VH: EVQLVQSGGGVVQPGRSLRVSCAASGFSFSRYGMHWVRQAPGKGLEWVAFIRHDGSKKYYADSVEGRFTISRDNSRNTVSLEMNSLRGEDTAVYYCAKDGRLEAALDDWGQGTLVTVSS
VL: NFMLTQPHSMSGSAGKTVTVSCIRSSGSIANNFVQWYQQRPGSAPTTVIYEDNQRPSGVPDRFSGSIDSSSNSASLTISGLKTEDEADYYCQSYDSSNLVFGGGTRLTVL
In the case of B3, the affinity, expressed as Kd, was 6.33 pM.

B4: S1-RBD-R3-T1-D7 Ab (Ab_34) (scFv, V domains shown)
VH: QVQLVQSGVEVKKPGESLKISCKGSGYSFTSYWIGWVRQMPGKGLEWMGIIYPGDSDTRYSPSFQGQVTISADKSISTAYLQWSSLKASDTAMYYCARTTYSYGSFDYWGQGTLVTVSS
VL: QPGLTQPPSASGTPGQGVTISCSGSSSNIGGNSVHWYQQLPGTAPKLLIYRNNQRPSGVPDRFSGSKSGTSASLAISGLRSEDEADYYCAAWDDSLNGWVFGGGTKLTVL
The molecule B4 came in with a Kd of 9.15 pM.

B5: S1-R3-T1-C4 (Ab_8) (scFv, V domains shown)
VH: QVQLVQSGAEVKKPGSSVKVSCKASGGTFSSYAISWLRQAPGQGLEWMGWINPNSGGTNYAQKFQGRVTMTRDTSISTAYMELSRLRSDDTAVYYCARGSGGYYLGWGQGTLVTVSS
VL: QPGLTQPPSVSKGLRQTATLTCTGNSNNVGNQGAAWLQQHQGHPPKLLSYMNNNRPPGISERFSASRSGNTASLTITGLQPEDEADYYCSAWDSSLSRWVFGGGTKLSVL
B5: binding was characterised by a dissociation constant (Kd) of 7.3 pM.

B6: RBD-R3-E1-A5 Ab (Ab_30) (scFv, V domains shown)
VH: QVQLVQSGGGVVQPGKSLRLSCTASGFTFSDFPIHWVRQAPGKGLEWVGVISYDGNIKYYGDSVKGRFTISRDNAKNSLYLQMNSLRVEDTAVYYCARGGSSFDIWGQGTTVTVSS
VL: SYELTQPPSVSEAPRQRVTISCSGSTSNIGNNAVSWYQHLPGKAPKLLIYYNERLPSGVSDRFSGSKSGTSASLAISGLRSEDEADYYCAAWDDSLSGHVVFGGGTKLTVL
The molecule B6 gave a Kd of 7.43 pM.

B7: Ab_16 (scFv, V domains shown)
VH: QVQLVQSGGGVVQPGRSLRLSCAASGFTFSNYGMHWVRQAPGKGLEWVALIWERGSKKDYADSVKGRFTVSRDNSKNTLYLQMNSLRPEDTAVYFCAREGISMTGAEYFQHWGQGTLVTVSS
VL: QSVLTQPPSVSGSPGQRVTMSCTGSSSNIGAGYDVHWYQQVPGAAPRLLIYGTNNRPSGVPDRFSGSKSGTSASLTITGLQAEDEADYYCQSYDNSLTDPYVFGTGTKVTVL
Take B7: the dissociation constant Kd was found to be 8.35 pM.

B8: Ab_17 (scFv, V domains shown)
VH: QVQLVQSGGGVVQPGRSLRLSCAASGFTFDDYAMHWVRQVPGKGLEWVSGIDWNSGVIGYADSVKGRFTISRDNVKNSLYLQMNSLRTEDSALYYCAKDIGPGGSGSYYAFDIWGQGTTVTVSS
VL: QSALTQPASVSGSPGQSITISCTGTSSDVGGSKYVSWYQQHPGKAPKVMIYDVTKRPSGVPDRFSGSKSGNTASLTISGLQAEDEADYYCAAWDDSLNGVVFGGGTKLTVL
In turn, B8 registered a Kd of 6.8 pM.

B9: Ab 27 (scFv, V domains shown)
VH: QVQLVQSGTEVKKPGASVKVSCKASGYSFTGSHLHWVRQAPGQGLEWMGWINPDSGVINYAQKFQGRVTLTRDTSISTAYMELSGLRSDDTAVYYCARDKAIGYVWALDYWGQGTLVTVSS
VL: QSALTQPPSVSGSPGQSVTISCTGTSSDVGTYNRVSWYQQPPGKAPKLMIYEVSNRPSGVSNRFSGSKSGNTASLTISGLQAEDEADYYCSSYTRTFTYVFGTGTKVTVL
The molecule B9 had a Kd of 7.53 pM.

B10: Ab 21 (scFv, V domains shown)
VH: QVQLVQSGGGLVQPGGSLRLSCATSGFTFDDYAMHWVRQAPGKGLEWVSGISWNSGSIGYVDSVKGRFTISRDNRNNKVYLQMNNLRAEDTAVYYCARDWWGSIDHWGLGTLVTVSS
VL: QSALTQPRSVSGSPGQSVTISCTGTSSDVGGYDYVSWYQQHPGKAPKLIIYDVSKRPSGVPDRFSGSKSGNTASLTVSGLQAEDEADYYCSSYTSSSPVVFGGGTKLTVL
As for B10, the Kd was 8 pM.

B11: Ab_19 (scFv, V domains shown)
VH: EVQLVESGAEVKKPGESLKISCKGSGYSFTSYWIGWVRQMPGKGLEWMGIIYPGDSDTRYSPSFQGQVTISADKSISTAYLQWSSLKASDTAMYYCARRGDLDAFDIWGQGTMVTVSS
VL: QPGLTQPPAASGTPGQRVTVSCSGASANIGSNAVSWFKQFPETAPRLLISGNTHRPSGVPDRVSGSKSGTSASLTISGLQSDDEADYYCAAWDDSLNGYVFGSGTKVTVL
For B11, binding was characterised by a dissociation constant (Kd) of 10.9 pM.

B12: Ab_14 (scFv, V domains shown)
VH: QVQLQQSGPGLVKPSQTLSLTCAISGDSVSSNSAAWNWIRQSPARGLEWLGRTYYRSRWYNDYAISMKSRITINPDTSKNQFSLQLESVTPEDTAVYYCAREIRGFDYWGQGTLVTVSS
VL: QSVLTQPPSASGSPGQSVTISCTGTSSDVGAYNFVSWYQHHPGKAPKLIIYDFNKRPSGVPDRFSGSKSGNTASLTVSGLQADDEADYYCSSYAGSNNFDVVFGGGTKLTVL
In the case of B12, binding was characterised by a dissociation constant (Kd) of 8.12 pM.

B13: Ab 23 (scFv, V domains shown)
VH: EVQLVQSGAEVKKPGSSVKVSCRSSGGTFSTYGITWVRQAPGQGLEWMGRIIPSLGIPNYAQKFQGRVTITADTSVSTAWMELSSLESDDTAIYYCARENIDLATNDFWGQGTLVTVSS
VL: QSALTQPPSASGSPGQSVTISCTGTSRDIGAYGYVSWYQQVPGKAPKLIIYEVRNRPSGVSSRFSGSKSGNTASLTISGLQAEDEADYYCSSYTSSSTLDVVFGGGTKLTVL
In the case of B13, the Kd was found to be 8.82 pM.

B14: RBD-R3-T1-H3 (Ab_2) (scFv, V domains shown)
VH: EVQLVQSGAEVKKPGSSVKVSCKTSGYTFTTSGISWVRQAPGQGLEWMGWISAYNGNTNYAQKLQGRVTMTTDTSTSTAYMELRSLRSDDTAVYYCARDFHLYYGMDVWGKGTLVTVSS
VL: QSALTQPPSASGSPGQSVTISCTGTSSDVGAYNYVSWYQQHPGKAPKLLIYDVTKRPPGVPDRFSGSKSGNTASLTVSGLQAEDEADYYCAVWDDGLNGRVVFGGGTKLTVL
As to B14, binding was characterised by a dissociation constant (Kd) of 167 pM.

B15: RBD-R3-E1-B3 Ab (Ab_32) (scFv, V domains shown)
VH: QVQLVQSGAEVKKPGESLKISCKGSGYSFTSYWIGWVRQMPGKGLEWMGIIYPGDSDTRYSPSFQGQVTISADKSISTAYLQWSSLKASDTAMYYCARGWQWHDYWGQGTLVTVSS
VL: QTVVTQEPAVSVALGQTVRITCQGDSLRSYYASWYQQKPGQAPVLVVYDKDKRPSGIPDRFSGSTSGNTASLTITGAQAEDEADYYCNSRDRSDNHVVFGGGTKLTVL
Molecule B15 came in with a Kd of 7.26 pM.

B16: Ab 20 (scFv, V domains shown)
VH: QVQLVQSGGGSVKPGGSLRLSCAASGYRLSDYYMHWVRQAPGKGLEWVANIKQDGSEKYYVDSVKGRFTISRDNAKNSLYLQMNSLRAEDTAVYYCARVRGWSRGYFDYWGQGTLVTVSS
VL: NFMLTQPHSVSESPGKTVTISCTGSSGSIASNYVQWYQQRPGSAPTTVIYEDNQRPSGVPDRFSGSIDSSSNSASLLISGLKTEDEADYYCQSYDSSNHWVFGGGTKLTVL
As to B16, binding was characterised by a dissociation constant (Kd) of 8.64 pM.

B17: S1-RBD-R3-T1-B12 Ab (Ab_31) (scFv, V domains shown)
VH: QVQLVQSGAEVKKPGSSVKVSCKASGGTFSSYTISWVRQAPGQGLEWMGGIIPILGTPNYAQKFQDRVAITADKSTSTAYMELSSLRSEDTAVYYCAVGSGWYSGFDYWGQGTLVTVSS
VL: B16 VL with N53S, L77T, Y94F, D95H, S96N, H99P, W100V, V101I
As for B17, the Kd was 9.03 pM.

B18: Ab 28 (scFv, V domains shown)
VH: QVTLKESGPGLVNPSETLSLTCTVSGASISNSFWSWIRQSPGKGLEWIGYTSYSGNSIYNPSLKSRLTMSIDTSKNQLSLNLRSLTAADTAVYYCARREWIKGHFDYWGQGTLVTVSS
VL: B16 VL with S26G, L77T, H99P, W100V
As for B18, the Kd worked out at 9.41 pM.

B19: S1-RBD-R3-T1-F5 (Ab2-7) (scFv, V domains shown)
VH: QVTLKESGPTRVKPTQTLTLTCTFSGFSLSTTGVGVGWIRQPPGKALEWLALIYWNDDKRYSPSLKSRLTITKDTSKNQVVLTMTNMDPVDTATYYCARISGSGYFYPFDIWGQGTTVTVSS
VL: B16 VL with G24R, A44S, L77T, T83A, N98S, H99L
Consider B19, for which the affinity, expressed as Kd, was 9.93 pM.

B20: Ab 25 (scFv, V domains shown)
VH: QVQLVQSGGGLVQPGGSLRLSCAASGFTFSSYWMSWVRQAPGKGLEWVANIKQDGSEKYYVDSVKGRFTISRDNAKNSLYLQMNSLRAEDTAVYYCARGFYYYGAFDIWGQGTTVTVSS
VL: B16 VL with D68G, L77T
For B20, the Kd turned out to be 8.56 pM.

B21: Ab_13 (scFv, V domains shown)
VH: B19 VH with T10K, R11L, T32S, N56D, T72A, N78Y, T117M, S122A
VL: B16 VL with G24R, L77T, H99L
For B21, the Kd came out at 8.1 pM.

B22: S1-RBD-R3-T1-C7 Ab (Ab 29) (scFv, V domains shown)
VH: QVQLQQSGPGLVKPSQTLSLTCAISGDSVSSYSDAWNWIRQSPSRGLEWLGRTYYRSKWYNDYAVSVKSRITINPDTSKNQFSLQLSSVTPEDTAVYYCAREIVATTPFRNYYYGMDVWGQGTTVTVSS
VL: NFMLTQPHSVSESPGNTVTISCTRTSGSIASNYVQWYQQRPGSSPTTVIFQDKLRPSGVPDRFSGSIDSSSNSASLTISGLKTEDEADYYCQSYDSSSLWVFGGGTKLTVL
As for B22, the affinity, expressed as Kd, was 1.04 pM.
